Source: publication doi:10.1101/2025.05.16.654284 (bioRxiv, 2025)

T1: YbbP (E. coli, UniProt P77504 1-804)
T1 sequence: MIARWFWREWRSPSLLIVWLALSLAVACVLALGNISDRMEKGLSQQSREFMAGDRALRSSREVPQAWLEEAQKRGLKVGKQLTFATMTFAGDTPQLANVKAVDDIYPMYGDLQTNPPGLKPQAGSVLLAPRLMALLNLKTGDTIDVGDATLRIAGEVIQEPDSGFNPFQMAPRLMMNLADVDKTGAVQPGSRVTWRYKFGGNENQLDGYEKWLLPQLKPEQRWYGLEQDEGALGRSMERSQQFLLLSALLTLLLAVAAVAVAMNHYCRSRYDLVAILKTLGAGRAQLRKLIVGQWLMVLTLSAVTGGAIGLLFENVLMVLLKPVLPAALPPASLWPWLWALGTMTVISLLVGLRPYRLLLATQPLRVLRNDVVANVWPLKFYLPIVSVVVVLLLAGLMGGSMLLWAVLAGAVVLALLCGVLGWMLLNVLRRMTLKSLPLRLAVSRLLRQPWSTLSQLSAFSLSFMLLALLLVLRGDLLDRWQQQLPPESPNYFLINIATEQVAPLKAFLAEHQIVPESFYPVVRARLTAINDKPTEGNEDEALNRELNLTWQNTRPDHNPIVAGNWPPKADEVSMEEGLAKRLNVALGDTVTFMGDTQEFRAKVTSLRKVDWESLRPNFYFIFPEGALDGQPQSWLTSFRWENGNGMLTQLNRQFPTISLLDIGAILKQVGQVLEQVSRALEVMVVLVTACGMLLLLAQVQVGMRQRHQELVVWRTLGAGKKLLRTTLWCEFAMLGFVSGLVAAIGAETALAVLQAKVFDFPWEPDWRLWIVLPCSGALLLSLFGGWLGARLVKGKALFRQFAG

B1: TesA Ser36Ala (enzyme, E. coli, UniProt P0ADA1 27-208, looked up)
chain: ADTLLILGDALSAGYRMSASAAWPALLNDKWQSKTSVVNASISGDTSQQGLARLPALLKQHQPRWVLVELGGNDGLRGFQPQQTEQTLRQILQDVKAANAEPLLMQIRLPANYGRRYNEAFSAIYPKLAKEFDVPLLPFFMEEVYLKPQWMQDDGIHPNRDAQPFIADWMAKQLQPLVNHDS
B2: YbbA (natural protein, E. coli)
chain: MPAENIVEVHHLKKSVGQGEHELSILTGVELVVKRGETIALVGESGSGKSTLLAILAGLDDGSSGEVSLVGQPLHNMDEEARAKLRAKHVGFVFQSFMLIPTLNALENVELPALLRGESSAESRNGAKALLEQLGLGKRLDHLPAQLSGGEQQRVALARAFNGRPDVLFADEPTGNLDRQTGDKIADLLFSLNREHGTTLIMVTHDLQLAARCDRCLRLVNGQLQEEA

Molecular target: T1, YbbP
Experiment: cryo-EM structure

| Binder | stoichiometry N |
| --- | --- |
| B1 | 1 |
| B2 | 2 |
